Biological target: Legionella pneumophila RalF Sec7 domain (LpRalF^Sec7, residues 1-201) (Legionella pneumophila, UniProt Q8RT31 1-201)
Assay: SEC
Details: both partners purified

B1: Human Arf1 lacking its N-terminal alpha-helix (Δ17Arf1) (domain or fragment)
chain: not shown
notes: also called Arf1-GDP; nucleotide-free Arf1
Does B1 bind?
Result: binds

— paper PMC3828167 (PLoS Pathogens, 2013)
